US20240343811A1 (SHANDONG SIMCERE BIOPHARMACUTICAL, published 2024)
Numbering of substitutions follows the chain as printed. Several values for one entry are separate records, joined by “and”; a condition that tells them apart may be missing. Equal values may be shown once. Read-outs that look alike come from different tables or passages of the source.

Assays:
[1] = biological target: T1, human CD16b (NA1), full length, on FlpinCHO cells (human, UniProt O75015 17-200); experiment: FACS on FlpinCHO cells
T1 construct: also called FlpinCHO-human CD16b (NA1)
T1 chain: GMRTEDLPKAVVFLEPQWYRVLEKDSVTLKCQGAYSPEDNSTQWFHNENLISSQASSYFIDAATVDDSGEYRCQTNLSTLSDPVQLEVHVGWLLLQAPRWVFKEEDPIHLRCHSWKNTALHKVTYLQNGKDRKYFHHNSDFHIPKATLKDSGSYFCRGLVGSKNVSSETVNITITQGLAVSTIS

[2] = biological target: T2, cynomolgus monkey CD16, full length, on FlpinCHO cells (cynomolgus monkey, UniProt Q8SPW2 17-254); experiment: FACS on FlpinCHO cells
T2 construct: also called FlpinCHO-cyno CD16; Flipin CHO-cyno CD16

[3] = biological target: T3, human CD16b (NA2), full length, on FlpinCHO cells (human, UniProt O75015 17-200); experiment: FACS on FlpinCHO cells
T3 construct: also called FlpinCHO-human CD16b (NA2)
T3 chain: T1 chain with R20S, N49S, D66N, V90I

[4] = biological target: T4, human CD16a (158V), full length, on cells (human, UniProt P08637 17-254); experiment: FACS on FlpinCHO cells
T4 construct: also used as target for the bought Jurkat-NFAT reporter line stably expressing human CD16a (158V); also called FlpinCHO-human CD16a (158V); FlpinCHO-CD16a (158V)

[5] = biological target: T5, human CD16a (158F), full length, on FlpinCHO cells (human, UniProt P08637 17-254); experiment: FACS on FlpinCHO cells
[6] = biological target: T4, human CD16a (158V), full length, on …; experiment: cell-based or functional assay
[7] = biological target: T4, human CD16a (158V), full length, on …; experiment: FACS, biotinylated antibody, +10 mg/mL human immunoglobulin
[8] = biological target: T5, human CD16a (158F), full length, on …; experiment: as above
[9] = biological target: T6, CD16 on primary human NK cells (human, UniProt P08637 17-254); experiment: FACS on human NK cells, biotinylated antibody, +10 mg/mL human immunoglobulin
T6 construct: whole, on cells; also called resting NK cells

[10] = biological target: T6, CD16 on primary human NK cells; experiment: FACS on human NK cells
In short: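 EC50 came from curve fitting of flow-cytometric MFI. Antibody titrations were bound for 1 hour on ice to fresh human NK cells blocked in PBS with 2% (w/w) BSA (2×10⁶ cells/ml), followed by five PBS washes before acquisition.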

[11] = biological target: T2, cynomolgus monkey CD16, full length, on …; experiment: FACS on FlpinCHO cells; remark: listed apart in the source
Experimental: (§1) The required cells were scale-up cultured in a T-75 cell culture flask to the logarithmic growth phase. The medium was aspirated, and the cells were washed twice with a PBS buffer and then digested with trypsin. After the digestion was terminated, the cells were washed twice with the PBS buffer. The cells were counted, and then the cell pellet was resuspended with a [PBS+2% (w/w) BSA] blocking solution to 2×10⁶ cells/ml, and added to a 96-well FACS reaction plate at 50 μl/well. […] 50 μl/well of the antibody to be detected was added at different concentrations, and incubated on ice for 1 hour. […] The mixture was centrifuged and washed 5 times with PBS, and FACS (FACS Canto II, purchased from BD Company) was used for detection and result analysis. Data analysis was performed by software (CellQuest) to obtain the mean fluorescence intensity (MFI) of the cells. Then, software (GraphPad Prism8) was used for analysis, data fitting and EC50 value calculation.
(§2) Flipin CHO-cyno CD16 cells were subjected to FACS detection and data analysis according to the method of Example 3.1.

[12] = biological target: T2, cynomolgus monkey CD16, full length, on …; experiment: FACS on FlpinCHO cells; remark: listed apart in the source
Experimental: as §1, §2

[13] = biological target: T4, human CD16a (158V), full length, on …; experiment: FACS on FlpinCHO cells; remark: listed apart in the source
In short: (§3)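 EC50 comes from fitted concentration–MFI curves. Antibody dilutions were bound to the cells for 1 hour on ice in PBS blocking buffer with 2% BSA, followed by washing and flow cytometric readout.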

[14] = biological target: T5, human CD16a (158F), full length, on …; experiment: FACS on FlpinCHO cells; remark: listed apart in the source
In short: as §3

[15] = biological target: T6, CD16 on primary human NK cells; experiment: FACS on human NK cells, biotinylated antibody
[16] = biological target: T4, human CD16a (158V), full length, on …; experiment: FACS on FlpinCHO cells; remark: listed apart in the source
[17] = biological target: T5, human CD16a (158F), full length, on …; experiment: FACS on FlpinCHO cells; remark: listed apart in the source
[18] = biological target: T4, human CD16a (158V), full length, on …; experiment: cell-based or functional assay; remark: listed apart in the source
[19] = biological target: T4, human CD16a (158V), full length, on …; experiment: FACS, biotinylated antibody
[20] = biological target: T5, human CD16a (158F), full length, on …; experiment: FACS, biotinylated antibody
[21] = biological target: T6, CD16 on primary human NK cells; experiment: FACS on human NK cells, biotinylated antibody; remark: listed apart in the source
[22] = biological target: T1, human CD16b (NA1), full length, on …; experiment: FACS on FlpinCHO cells
In short: (§4)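 EC50 values come from fitted MFI curves measured by FACS. Antibody dilutions were bound for 1 hour on ice to CD16b-transfected FlpinCHO cells suspended in PBS with 2% BSA blocking solution.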

[23] = biological target: T3, human CD16b (NA2), full length, on …; experiment: FACS on FlpinCHO cells
In short: as §4

[24] = biological target: T1, human CD16b (NA1), full length, on …; experiment: FACS on FlpinCHO cells
In short: as §4

[25] = biological target: T3, human CD16b (NA2), full length, on …; experiment: FACS on FlpinCHO cells
In short: as §4

[26] = biological target: T6, CD16 on primary human NK cells; experiment: FACS on human NK cells, biotinylated antibody, +10 mg/mL human immunoglobulin; remark: listed apart in the source

T2 sequence (Q8SPW2 other isoform, or with tags, fused parts or gaps limits assumed): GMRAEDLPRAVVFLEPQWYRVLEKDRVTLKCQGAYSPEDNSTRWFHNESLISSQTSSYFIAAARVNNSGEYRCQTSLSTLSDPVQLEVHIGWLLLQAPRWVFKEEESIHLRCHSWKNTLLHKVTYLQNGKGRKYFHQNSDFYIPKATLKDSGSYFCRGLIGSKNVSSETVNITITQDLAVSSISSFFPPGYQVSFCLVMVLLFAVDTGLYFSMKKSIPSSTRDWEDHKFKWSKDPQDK

B1: 3G8 antibody as used to check the stably transfected cell lines (Example 1.3) (antibody, V domains shown)
VH: QVTLKESGPGILQPSQTLSLTCSFSGFSLRTSGMGVGWIRQPSGKGLEWLAHIWWDDDKRYNPALKSRLTISKDTSSNQVFLKIASVDTADTATYYCAQINPAWFAYWGQGTLVTVSA
VL: DTVLTQSPASLAVSLGQRATISCKASQSVDFDGDSFMNWYQQKPGQPPKLLIYTTSNLESGIPARFSASGSGTDFTLNIHPVEEEDTATYYCQQSNEDPYTFGGGTKLEIK
notes: also called CD16 antibody
Mean fluorescence intensity [1]: 28100 | Mean fluorescence intensity [2]: 5500 | Mean fluorescence intensity [3]: 24800 | Mean fluorescence intensity [4]: 5870 | Mean fluorescence intensity [5]: 3080

B2: P2C47 scFv-hFc (Fc fusion)
chain: SYVLTQPSSVSVAPGQTATISCGGHNIGSKNVHWYQQRPGQSPVLVIYQDNKRPSGIPERFSGSNSGNTATLTISGTQAMDEADYYCQVWDNYSVLFGGGTKLTVLGGGGSGGGGSGGGGSQVQLVQSGAEVKKPGESLKVSCKASGYTFTSYYMHWVRQAPGQGLEWMGAIEPMYGSTSYAQKFQGRVTMTRDTSTSTVYMELSSLRSEDTAVYYCARGSAYYYDFADYWGQGTLVTVSSEPKSSDKTHTCPPCPAPEEFGGPSVFLFPPKPKDTLMISRTPEVTCVVVAVSHEDPEVKFNWYVDGVEVHNAKTKPREEQYNSTYRVVSVLTVLHQDWLNGKEYKCKVSNKALPAPIEKTISKAKGQPREPQVYTLPPSREEMTKNQVSLTCLVKGFYPSDIAVEWESNGQPENNYKTTPPVLDSDGSFFLYSKLTVDKSRWQQGNVFSCSVMHEALHNHYTQKSLSLSPGK
notes: also called control antibody P2C47
EC50, activation activity for Jurkat cell [6]: 0.06 nM | Maximum fluorescence value [6]: 149000 | EC50 [7]: 3.32 nM and 2.87 nM | EC50 [8]: 2.97 nM and 2.63 nM | EC50 [9]: 5.4 nM | Maximum mean fluorescence intensity [9]: 30900 | EC50 [10]: 0.84 nM | Maximum mean fluorescence intensity [10]: 2540 | EC50 [11]: 0.58 nM | Maximum mean fluorescence intensity [11]: 29200 | EC50 [12]: 0.62 nM | Maximum mean fluorescence intensity [12]: 20100 | EC50 [13]: 0.85 nM and 1.03 nM | EC50 [14]: 0.62 nM and 0.98 nM | EC50 [15]: 1.33 nM | Maximum mean fluorescence intensity [15]: 33000 | EC50 [16]: 0.54 nM | Maximum mean fluorescence intensity [16]: 8800 | EC50 [17]: 0.56 nM | Maximum mean fluorescence intensity [17]: 9400 | EC50, activation activity for Jurkat cell [18]: 0.04 nM | Maximum fluorescence value [18]: 158000 | EC50 [19]: 0.58 nM and 0.77 nM | EC50 [20]: 0.41 nM and 0.39 nM | EC50 [21]: 0.99 nM | Maximum mean fluorescence intensity [21]: 30100 | EC50 [22]: 3.36 nM | Maximum mean fluorescence intensity [22]: 43600 | Maximum mean fluorescence intensity [23]: 63400 | EC50 [24]: 3.18 nM and 5.5 nM | EC50 [25]: 14.2 nM and 5.12 nM | EC50 [26]: 4.3 nM | Maximum mean fluorescence intensity [26]: 28000
